Reference: article PMC10289004

Legend:
[1] = RIPK1 protein level, HT-29 or HEK293; conditions: glycan lost; control: untreated / control knockdown
[2] = western blot, erythrocytes of LPS-injected mice; conditions: glycan gained; control: LPS + PBS
[3] = RIPK1 protein level, MEFs; conditions: glycan lost; control: untreated
[4] = western blot, MEFs, 4h TSZ; conditions: glycan lost; control: TSZ alone

B1: RIPK1 (hRIPK1): OGT knockdown (protein)
parent chain: MQPDMSLNVIKMKSSDFLESAELDSGGFGKVSLCFHRTQGLMIMKTVYKGPNCIEHNEALLEEAKMMNRLRHSRVVKLLGVIIEEGKYSLVMEYMEKGNLMHVLKAEMSTPLSVKGRIILEIIEGMCYLHGKGVIHKDLKPENILVDNDFHIKIADLGLASFKMWSKLNNEEHNELREVDGTAKKNGGTLYYMAPEHLNDVNAKPTEKSDVYSFAVVLWAIFANKEPYENAICEQQLIMCIKSGNRPDVDDITEYCPREIISLMKLCWEANPEARPTFPGIEEKFRPFYLSQLEESVEEDVKSLKKEYSNENAVVKRMQSLQLDCVAVPSSRSNSATEQPGSLHSSQGLGMGPVEESWFAPSLEHPQEENEPSLQSKLQDEANYHLYGSRMDRQTKQQPRQNVAYNREEERRRRVSHDPFAQQRPYENFQNTEGKGTAYSSAASHGNAVHQPSGLTSQPQVLYQNNGLYSSHGFGTRPLDPGTAGPRVWYRPIPSHMPSLHNIPVPETNYLGNTPTMPFSSLPPTDESIKYTIYNSTGIQIGAYNYMEIGGTSSSLLDSTNTNFKEEPAAKYQAIFDNTTSLTDKHLDPIRENLGKHWKNCARKLGFTQSQIDEIDHDYERDGLKEKVYQMLQKWVMREGIKGATVGKLAQALHQCSRIDLLSSLIYVSQN
**Q.** Which expression_or_secretion [1] does the source give for B1 here?
**A.** no change

B2: RIPK1 (mouse): TMG (protein)
parent chain: MQPDMSLDNIKMASSDLLEKTDLDSGGFGKVSLCYHRSHGFVILKKVYTGPNRAEYNEVLLEEGKMMHRLRHSRVVKLLGIIIEEGNYSLVMEYMEKGNLMHVLKTQIDVPLSLKGRIIVEAIEGMCYLHDKGVIHKDLKPENILVDRDFHIKIADLGVASFKTWSKLTKEKDNKQKEVSSTTKKNNGGTLYYMAPEHLNDINAKPTEKSDVYSFGIVLWAIFAKKEPYENVICTEQFVICIKSGNRPNVEEILEYCPREIISLMERCWQAIPEDRPTFLGIEEEFRPFYLSHFEEYVEEDVASLKKEYPDQSPVLQRMFSLQHDCVPLPPSRSNSEQPGSLHSSQGLQMGPVEESWFSSSPEYPQDENDRSVQAKLQEEASYHAFGIFAEKQTKPQPRQNEAYNREEERKRRVSHDPFAQQRARENIKSAGARGHSDPSTTSRGIAVQQLSWPATQTVWNNGLYNQHGFGTTGTGVWYPPNLSQMYSTYKTPVPETNIPGSTPTMPYFSGPVADDLIKYTIFNSSGIQIGNHNYMDVGLNSQPPNNTCKEESTSRHQAIFDNTTSLTDEHLNPIRENLGRQWKNCARKLGFTESQIDEIDHDYERDGLKEKVYQMLQKWLMREGTKGATVGKLAQALHQCCRIDLLNHLIRASQS
**Q.** With B2 as the protein, how does the “other: RIPK1 Ser166 phosphorylation” value [2] read?
**A.** decreases

B3: RIPK1 (mouse): OSMI-4 (protein)
parent chain: MQPDMSLDNIKMASSDLLEKTDLDSGGFGKVSLCYHRSHGFVILKKVYTGPNRAEYNEVLLEEGKMMHRLRHSRVVKLLGIIIEEGNYSLVMEYMEKGNLMHVLKTQIDVPLSLKGRIIVEAIEGMCYLHDKGVIHKDLKPENILVDRDFHIKIADLGVASFKTWSKLTKEKDNKQKEVSSTTKKNNGGTLYYMAPEHLNDINAKPTEKSDVYSFGIVLWAIFAKKEPYENVICTEQFVICIKSGNRPNVEEILEYCPREIISLMERCWQAIPEDRPTFLGIEEEFRPFYLSHFEEYVEEDVASLKKEYPDQSPVLQRMFSLQHDCVPLPPSRSNSEQPGSLHSSQGLQMGPVEESWFSSSPEYPQDENDRSVQAKLQEEASYHAFGIFAEKQTKPQPRQNEAYNREEERKRRVSHDPFAQQRARENIKSAGARGHSDPSTTSRGIAVQQLSWPATQTVWNNGLYNQHGFGTTGTGVWYPPNLSQMYSTYKTPVPETNIPGSTPTMPYFSGPVADDLIKYTIFNSSGIQIGNHNYMDVGLNSQPPNNTCKEESTSRHQAIFDNTTSLTDEHLNPIRENLGRQWKNCARKLGFTESQIDEIDHDYERDGLKEKVYQMLQKWLMREGTKGATVGKLAQALHQCCRIDLLNHLIRASQS
**Q.** For B3, which expression_or_secretion [3] is on record?
**A.** no change

**Q.** What about the “other: RIPK1 Ser166 phosphorylation” value [4] of the same protein?
**A.** increases
